The source of these data is IntAct's records for PubMed 24165923.

The assay addresses rspo1_human RSPO1 (UniProt Q2MKA7).

Sequence of rspo1_human RSPO1 (Q2MKA7 whole entry): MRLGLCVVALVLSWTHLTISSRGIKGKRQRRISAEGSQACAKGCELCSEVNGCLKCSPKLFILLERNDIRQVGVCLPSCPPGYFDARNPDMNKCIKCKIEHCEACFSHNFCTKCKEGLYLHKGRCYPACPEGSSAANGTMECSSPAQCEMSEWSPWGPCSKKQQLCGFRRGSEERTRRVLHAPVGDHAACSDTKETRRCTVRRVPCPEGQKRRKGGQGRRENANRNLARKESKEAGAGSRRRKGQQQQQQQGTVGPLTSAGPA

On to “E3 ubiquitin-protein ligase ZNRF3 (Homo sapiens), Q9ULT6 P103A”, for which the “effect of a mutation on the interaction” value was “disrupting interaction”.
